Measurements as given in EP4696329A1 (BioRay Pharmaceutical Co., Ltd., dated 2024).
Changes are numbered by the printed parent chain. Names may count otherwise. Where two headings read alike, the source gives them in different places.

B1: ADC-6 (UC961 conjugated to LD-14) (antibody, human IgG1, kappa, V domains shown)
VH: QVQLQESGPGLVKPSQTLSLTCTVSGYAFTAYNIHWVRQAPGQGLEWMGSFDPYDGGSSYNQKFKDRLTISKDTSKNQVVLTMTNMDPVDTATYYCARGWYYFDYWGHGTLVTVSS
VL: DIVMTQTPLSLPVTPGEPASISCRASKSISKYLAWYQQKPGQAPRLLIYSGSTLQSGIPPRFSGSGYGTDFTLTINNIESEDAAYYFCQQHDESPYTFGEGTKVEIKR
modifications: linker-drug LD-14 (eribulin) on cysteine sulfhydryls of reduced disulfides; drug loading 3.7-4.3 per antibody
B2: ADC-7 (UC961 conjugated to LD-1) (antibody, human IgG1, kappa, V domains shown)
VH: B1 VH
VL: B1 VL
modifications: linker-drug LD-1 (MMAE) on cysteine sulfhydryls of reduced disulfides; drug loading 3.7-4.3 per antibody
B3: YR-4 (antibody, human IgG1, kappa, V domains shown)
VH: QVQLQESGPGLVKPSETLSLTCTVSGFSLTRYGVHWIRQPPGKGLEWIGVIWAGGFTNYNSSLKSRVTISKDNSKNQVSLKLSSVTAADTAVYYCARRGDGYSMQYWGQGTLVTVSS
VL: EIVLTQSPATLSLSPGERATLSCSASSQVSYIHWYQQKPGQAPRPWIYEISKLASGIPARFSGSGSGTDYTLTISSLEPEDFAVYYCQQWNYPLITFGQGTKLEIKR
B4: YR-8-NL (antibody, human IgG1, kappa, V domains shown)
VH: B3 VH with I48L, S61L, S62D, V67L, G101S, Q105K
VL: B3 VL with I50T
notes: YR-8 with S61L (Kabat) in the heavy chain
B5: YR-21 (antibody, human IgG1, kappa, V domains shown)
VH: B3 VH with I48L, S62G, V67L, G101Q, Q105G
VL: B3 VL with I50T
B6: YR-8-NT (antibody, human IgG1, kappa, V domains shown)
VH: B3 VH with I48L, S61T, S62D, V67L, G101S, Q105K
VL: B3 VL with I50T
notes: YR-8 with S61T (Kabat) in the heavy chain
B7: YR-8-NV (antibody, human IgG1, kappa, V domains shown)
VH: B3 VH with I48L, S61V, S62D, V67L, G101S, Q105K
VL: B3 VL with I50T
notes: YR-8 with S61V (Kabat) in the heavy chain
B8: YR-8-NI (antibody, human IgG1, kappa, V domains shown)
VH: B3 VH with I48L, S61I, S62D, V67L, G101S, Q105K
VL: B3 VL with I50T
notes: YR-8 with S61I (Kabat) in the heavy chain
B9: YR-8-NA (antibody, human IgG1, kappa, V domains shown)
VH: B3 VH with I48L, S61A, S62D, V67L, G101S, Q105K
VL: B3 VL with I50T
notes: YR-8 with S61A (Kabat) in the heavy chain
B10: ADC-5 (AM3-ZH3 conjugated to LD-1) (antibody, human IgG1, kappa, V domains shown)
VH: EVQLVESGGGLVQPGGSLRLSCAASGFTFSSYPMSWVRQAPGKGLEWVSSISTGASAYFPDSVKGRFTISRDNAKNSLYLQMNSLRAEDTAVYYCARITTSTWYMDVWGQGTTVTVSS
VL: DIQMTQSPSAMSASVGDRVTITCKASQDIYSYLSWFQQKPGKVPKTLIYRANRLVRGVPSRFSGSGSGQEYTLTISSLQPEDMATYYCLQYDEFPYTFGQGTKLEIKR
modifications: linker-drug LD-1 (MMAE) on cysteine sulfhydryls of reduced disulfides; average DAR between 3.7 and 4.3
B11: ADC-2 (AM3-ZH3 conjugated to LD-14) (antibody, human IgG1, kappa, V domains shown)
VH: B10 VH
VL: B10 VL
modifications: linker-drug LD-14 (eribulin) on cysteine sulfhydryls of reduced disulfides; average DAR between 3.7 and 4.3
B12: AM3-ZH7 (antibody, human IgG1, kappa, V domains shown)
VH: B10 VH with P33A
VL: B10 VL
B13: AM3-ZH5 (antibody, human IgG1, kappa, V domains shown)
VH: B10 VH with P33A
VL: B10 VL with Y30F, R56S
B14: AM3-ZH4 (antibody, human IgG1, kappa, V domains shown)
VH: B10 VH with P33A, I98Y, M105H
VL: B10 VL
B15: AM3-ZH6 (antibody, human IgG1, kappa, V domains shown)
VH: B10 VH with P33A
VL: B10 VL with R56G
B16: AM3-ZH1 (antibody, human IgG1, kappa, V domains shown)
VH: B10 VH with I98Y, M105F
VL: B10 VL
B17: H10-hVH4-hVL4 (antibody, human IgG1, kappa, V domains shown)
VH: B10 VH with P33A, M105F
VL: B10 VL with Y30N, R56D
notes: also called H10-VH4VL4
B18: ADC-3 (KIH YR8/ZH3 conjugated to LD-14) (bispecific antibody, human IgG1, kappa)
heavy 1: not shown
light 1: EIVLTQSPATLSLSPGERATLSCSASSQVSYIHWYQQKPGQAPRPWIYETSKLASGIPARFSGSGSGTDYTLTISSLEPEDFAVYYCQQWNYPLITFGQGTKLEIKRTVAAPSVFIFPPSDEQLKSGTASVVCLLNNFYPREAKVQWKVDNALQSGNSQESVTEQDSKDSTYSLSSTLTLSKADYEKHKVYACEVTHQGLSSPVTKSFNRGEC
heavy 2: not shown
light 2: DIQMTQSPSAMSASVGDRVTITCKASQDIYSYLSWFQQKPGKVPKTLIYRANRLVRGVPSRFSGSGSGQEYTLTISSLQPEDMATYYCLQYDEFPYTFGQGTKLEIKRTVAAPSVFIFPPSDEQLKSGTASVVCLLNNFYPREAKVQWKVDNALQSGNSQESVTEQDSKDSTYSLSSTLTLSKADYEKHKVYACEVTHQGLSSPVTKSFNRGEC
modifications: linker-drug LD-14 (eribulin) on cysteine sulfhydryls of reduced disulfides; average DAR between 3.7 and 4.3
B19: KIH YR8/ZH3, an ROR1-targeting biepitopic antibody (bispecific antibody, human IgG1, kappa)
heavy 1: not shown
light 1: B18 light 1
heavy 2: not shown
light 2: B18 light 2
notes: chain 1: YR-8-ES arm with Fc knob (T366W); chain 3: AM3-ZH3 arm with Fc hole (T366S, L368A, Y407V); made by reduction and mixing of YR-8-ES variant 1 and AM3-ZH3 variant 1
B20: ADC-4 (KIH YR8/ZH3 conjugated to LD-1) (bispecific antibody, human IgG1, kappa)
heavy 1: not shown
light 1: B18 light 1
heavy 2: not shown
light 2: B18 light 2
modifications: linker-drug LD-1 (MMAE) on cysteine sulfhydryls of reduced disulfides; average DAR between 3.7 and 4.3

Experiments:
[1] = target: T1, human ROR1 expressed on cells (MDA-MB-231, Jeko-1, PA-1, HCC1187) (human, UniProt Q01973 30-937); assay: cell-based or functional assay
T1 sequence (Q01973 30-937 limits assumed): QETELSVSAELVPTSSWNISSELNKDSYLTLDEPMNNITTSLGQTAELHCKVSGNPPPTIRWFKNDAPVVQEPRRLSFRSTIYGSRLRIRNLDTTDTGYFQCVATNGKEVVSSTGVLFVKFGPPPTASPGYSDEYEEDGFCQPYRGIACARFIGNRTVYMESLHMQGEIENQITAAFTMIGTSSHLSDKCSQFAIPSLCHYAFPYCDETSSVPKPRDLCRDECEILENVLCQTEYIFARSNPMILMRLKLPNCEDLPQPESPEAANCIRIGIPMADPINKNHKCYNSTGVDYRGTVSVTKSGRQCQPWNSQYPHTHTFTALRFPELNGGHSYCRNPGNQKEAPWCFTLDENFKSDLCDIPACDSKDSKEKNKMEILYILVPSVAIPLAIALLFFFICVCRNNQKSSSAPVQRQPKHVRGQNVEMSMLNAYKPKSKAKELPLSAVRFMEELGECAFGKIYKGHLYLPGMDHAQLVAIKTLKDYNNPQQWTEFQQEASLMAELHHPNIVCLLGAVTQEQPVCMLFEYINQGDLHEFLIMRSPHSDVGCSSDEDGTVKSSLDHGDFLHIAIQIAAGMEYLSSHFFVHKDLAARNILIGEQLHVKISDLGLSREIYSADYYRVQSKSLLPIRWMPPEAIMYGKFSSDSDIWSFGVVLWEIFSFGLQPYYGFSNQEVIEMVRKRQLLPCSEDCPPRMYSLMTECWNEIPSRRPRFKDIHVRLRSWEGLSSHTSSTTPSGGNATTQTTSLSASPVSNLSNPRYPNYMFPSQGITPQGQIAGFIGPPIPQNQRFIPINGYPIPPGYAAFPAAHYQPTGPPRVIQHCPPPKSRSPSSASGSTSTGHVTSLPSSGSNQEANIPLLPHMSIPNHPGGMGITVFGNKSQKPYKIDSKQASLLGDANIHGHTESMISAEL

[2] = target: T2, human ROR2 protein (hROR2, Kactus Biosystems, Cat. No. ROR-HM402) (human, UniProt Q01974 34-403, limits assumed); assay: ELISA, plate coated with hROR2
T2 sequence (Q01974 34-403 limits assumed): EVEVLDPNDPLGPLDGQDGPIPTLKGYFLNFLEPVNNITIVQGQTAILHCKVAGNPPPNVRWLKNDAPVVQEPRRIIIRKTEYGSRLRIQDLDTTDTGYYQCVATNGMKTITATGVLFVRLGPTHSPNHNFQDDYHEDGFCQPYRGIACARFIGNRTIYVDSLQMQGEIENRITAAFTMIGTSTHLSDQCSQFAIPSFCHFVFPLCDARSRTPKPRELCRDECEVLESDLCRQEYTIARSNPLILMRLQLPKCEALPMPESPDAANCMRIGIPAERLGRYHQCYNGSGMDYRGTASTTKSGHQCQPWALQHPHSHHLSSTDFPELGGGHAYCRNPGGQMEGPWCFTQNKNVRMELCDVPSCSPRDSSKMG

[3] = target: T3, human ROR1 protein (recombinant ROR1 antigen, Kactus Biosystems) (human, UniProt Q01973 30-406, limits assumed); assay: BLI (Octet R8), antibody captured on AHC sensor, ROR1 antigen as analyte
T3 sequence (Q01973 30-406 limits assumed): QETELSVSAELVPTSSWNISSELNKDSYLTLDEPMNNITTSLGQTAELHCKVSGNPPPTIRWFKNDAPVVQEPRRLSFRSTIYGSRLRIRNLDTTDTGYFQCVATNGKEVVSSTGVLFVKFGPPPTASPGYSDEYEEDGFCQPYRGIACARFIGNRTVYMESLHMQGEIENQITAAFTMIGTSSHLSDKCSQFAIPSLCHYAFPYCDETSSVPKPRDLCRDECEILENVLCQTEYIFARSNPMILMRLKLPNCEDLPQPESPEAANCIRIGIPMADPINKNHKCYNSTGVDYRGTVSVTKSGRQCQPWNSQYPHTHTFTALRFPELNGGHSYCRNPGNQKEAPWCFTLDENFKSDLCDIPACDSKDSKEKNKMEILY

[4] = target: T3, human ROR1 protein (recombinant ROR1 …); assay: as above; remark: listed apart in the source
[5] = target: T2, human ROR2 protein (hROR2, Kactus …); assay: ELISA, plate coated with hROR2; remark: listed apart in the source
[6] = target: T3, human ROR1 protein (recombinant ROR1 …); assay: BLI (Octet R8), antibody captured on AHC sensor, ROR1 antigen as analyte; remark: listed apart in the source
[7] = target: T2, human ROR2 protein (hROR2, Kactus …); assay: ELISA, plate coated with hROR2; remark: listed apart in the source
[8] = target: T3, human ROR1 protein (recombinant ROR1 …); assay: binding to ROR1 (column 'Binding to ROR1'; method not described)
[9] = target: T1, human ROR1 expressed on cells …; assay: flow cytometry on MDA-MB-231 cells
[10] = target: T1, human ROR1 expressed on cells …; assay: flow cytometry on Jeko-1 cells
[11] = target: T1, human ROR1 expressed on cells …; assay: flow cytometry on PA-1 cells

Row | Binder | inhibitory IC50 against the proliferation of HCC1187 cells (CellTiterGlo2) [1] [nM] | inhibitory IC50 against the proliferation of Jeko1 cells (CellTiterGlo2) [1] [nM] | inhibitory IC50 against the proliferation of PA-1 cells (CellTiterGlo2) [1] [nM] | Kd [6] [nM] | binding result [7] | EC50 [8] [µg/mL] | EC50 [9] [µg/mL] | other results
1 | B1 | 0.24 | 2.08 | 0.36 | – | – | – | – | –
2 | B2 | 15.4 | 76.3 | 15.1 | – | – | – | – | –
3 | B3 | – | – | – | – | – | – | – | binding result [2]: binds; Kd [3]: 10 nM
4 | B4 | – | – | – | – | – | – | – | Kd [4]: 16 nM; binding result [5]: binds
5 | B5 | – | – | – | – | – | – | – | binding result [2]: binds; Kd [3]: 6.21 nM
6 | B6 | – | – | – | – | – | – | – | Kd [4]: 16 nM; binding result [5]: binds
7 | B7 | – | – | – | – | – | – | – | Kd [4]: 16 nM; binding result [5]: binds
8 | B8 | – | – | – | – | – | – | – | Kd [4]: 14 nM; binding result [5]: binds
9 | B9 | – | – | – | – | – | – | – | Kd [4]: 14 nM; binding result [5]: binds
10 | B10 | 6.3 | 65.1 | 17.8 | – | – | – | – | –
11 | B11 | 0.09 | 0.285 | 0.017 | – | – | – | – | –
12 | B12 | – | – | – | 8.5 | no binding (tested: starting from 333.33 nM) | 0.0115 | 0.0101 | –
13 | B13 | – | – | – | 10 | no binding (tested: starting from 333.33 nM) | 0.0124 | 0.0148 | –
14 | B14 | – | – | – | 27 | no binding (tested: starting from 333.33 nM) | 0.0161 | 0.0163 | –
15 | B15 | – | – | – | 11 | no binding (tested: starting from 333.33 nM) | 0.012 | 0.013 | –
16 | B16 | – | – | – | 7.9 | binds | 0.0127 | 0.0169 | –
17 | B17 | – | – | – | 47 | no binding (tested: starting from 333.33 nM) | 0.0144 | 0.0304 | –
18 | B18 | 0.014 | 0.018 | 0.032 | – | – | – | – | –
19 | B19 | – | – | – | – | – | – | – | EC50 [10]: 0.19 nM; MFI fold [10]: 8.2 fold; EC50 [11]: 0.41 nM; MFI fold [11]: 7 fold
20 | B20 | 1.2 | 46.6 | 4.2 | – | – | – | – | –
